Measured values published in US20220339270A1 (published 2022).

target: T1, wild-type tau (441 amino acids; tau441; NP_005901.2) (human, UniProt P10636 1-758); experiment: wild-type tau ELISA, 293 cell supernatant
T1 construct: Unphosphorylated recombinant tau441 used in the wild-type tau ELISA; also called wt tau441; wtTau
T1 sequence (P10636 other isoform, or with tags, fused parts or gaps limits assumed): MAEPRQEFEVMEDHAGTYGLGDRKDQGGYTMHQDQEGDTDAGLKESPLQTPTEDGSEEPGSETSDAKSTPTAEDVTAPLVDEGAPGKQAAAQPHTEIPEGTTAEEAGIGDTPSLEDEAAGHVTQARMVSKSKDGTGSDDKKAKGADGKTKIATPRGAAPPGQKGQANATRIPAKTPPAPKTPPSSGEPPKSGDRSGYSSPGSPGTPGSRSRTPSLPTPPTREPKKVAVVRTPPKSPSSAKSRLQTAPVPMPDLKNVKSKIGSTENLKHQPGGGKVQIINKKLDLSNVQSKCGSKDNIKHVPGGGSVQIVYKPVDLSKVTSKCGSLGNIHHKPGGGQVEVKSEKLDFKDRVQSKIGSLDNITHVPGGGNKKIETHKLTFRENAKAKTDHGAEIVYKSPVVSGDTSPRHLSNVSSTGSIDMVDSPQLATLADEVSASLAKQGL

| Binder | binding result |
| --- | --- |
| IPN002 scFv-HA expressed from TAU_ITR142 (CAG, HL, (G4S)6) (scFv, also called CAG-IPN0011-HL-G4S6) scFv: EVHLVESGGALVKPGGSLKLSCAASGFSFSKYGMSWVRQTPDKRLEWVATISSSGSRTYYPDSVKGQFTISRDNAKNTLYLQMSSLKSEDTAMYYCSISWDGAMDYWGQGTSVTVSSGGGGSGGGGSGGGGSGGGGSGGGGSGGGGSDVLMTQTPLSLPVSLGDQASISCKSSQSIVHSNGNTYLEWYLQKPGQSPKLLVYKVSNRFSGVPDRFSGSGSGTDFTLKISRVEAEDLGTYYCFQGSLVPWAFGGGTKLEIK | binds |
| IPN002 scFv-HA expressed from TAU_ITR151 (CAG, LH, (G4S)2) (scFv, also called CAG-IPN004-LH-G4S2) scFv: DVLMTQTPLSLPVSLGDQASISCKSSQSIVHSNGNTYLEWYLQKPGQSPKLLVYKVSNRFSGVPDRFSGSGSGTDFTLKISRVEAEDLGTYYCFQGSLVPWAFGGGTKLEIKGGGGSGGGGSEVHLVESGGALVKPGGSLKLSCAASGFSFSKYGMSWVRQTPDKRLEWVATISSSGSRTYYPDSVKGQFTISRDNAKNTLYLQMSSLKSEDTAMYYCSISWDGAMDYWGQGTSVTVSS | binds |
| IPN002 scFv-HA expressed from TAU_ITR139 (CAG, HL, (G4S)3) (scFv, also called CAG-IPN003-HL-G4S3; H(G4S)3L) scFv: EVHLVESGGALVKPGGSLKLSCAASGFSFSKYGMSWVRQTPDKRLEWVATISSSGSRTYYPDSVKGQFTISRDNAKNTLYLQMSSLKSEDTAMYYCSISWDGAMDYWGQGTSVTVSSGGGGSGGGGSGGGGSDVLMTQTPLSLPVSLGDQASISCKSSQSIVHSNGNTYLEWYLQKPGQSPKLLVYKVSNRFSGVPDRFSGSGSGTDFTLKISRVEAEDLGTYYCFQGSLVPWAFGGGTKLEIK | binds |
| IPN002 scFv-HA expressed from TAU_ITR137 (CAG, HL, G4S) (scFv, also called CAG-IPN002-HL-G4S; H(G4S)L) scFv: EVHLVESGGALVKPGGSLKLSCAASGFSFSKYGMSWVRQTPDKRLEWVATISSSGSRTYYPDSVKGQFTISRDNAKNTLYLQMSSLKSEDTAMYYCSISWDGAMDYWGQGTSVTVSSGGGGSDVLMTQTPLSLPVSLGDQASISCKSSQSIVHSNGNTYLEWYLQKPGQSPKLLVYKVSNRFSGVPDRFSGSGSGTDFTLKISRVEAEDLGTYYCFQGSLVPWAFGGGTKLEIK | binds |
| IPN002 scFv-HA expressed from TAU_ITR143 (CAG, HL, (G4S)8) (scFv, also called CAG-IPN0012-HL-G4S8) scFv: EVHLVESGGALVKPGGSLKLSCAASGFSFSKYGMSWVRQTPDKRLEWVATISSSGSRTYYPDSVKGQFTISRDNAKNTLYLQMSSLKSEDTAMYYCSISWDGAMDYWGQGTSVTVSSGGGGSGGGGSGGGGSGGGGSGGGGSGGGGSGGGGSGGGGSDVLMTQTPLSLPVSLGDQASISCKSSQSIVHSNGNTYLEWYLQKPGQSPKLLVYKVSNRFSGVPDRFSGSGSGTDFTLKISRVEAEDLGTYYCFQGSLVPWAFGGGTKLEIK | binds |
| IPN002 scFv-HA expressed from TAU_ITR140 (CAG, HL, (G4S)4) (scFv, also called CAG-IPN008-HL-G4S4) scFv: EVHLVESGGALVKPGGSLKLSCAASGFSFSKYGMSWVRQTPDKRLEWVATISSSGSRTYYPDSVKGQFTISRDNAKNTLYLQMSSLKSEDTAMYYCSISWDGAMDYWGQGTSVTVSSGGGGSGGGGSGGGGSGGGGSDVLMTQTPLSLPVSLGDQASISCKSSQSIVHSNGNTYLEWYLQKPGQSPKLLVYKVSNRFSGVPDRFSGSGSGTDFTLKISRVEAEDLGTYYCFQGSLVPWAFGGGTKLEIK | binds |
| IPN002 scFv-HA expressed from TAU_ITR152 (CAG, LH, (G4S)3) (scFv, also called CAG-IPN005-LH-G4S3; L(G4S)3H) scFv: DVLMTQTPLSLPVSLGDQASISCKSSQSIVHSNGNTYLEWYLQKPGQSPKLLVYKVSNRFSGVPDRFSGSGSGTDFTLKISRVEAEDLGTYYCFQGSLVPWAFGGGTKLEIKGGGGSGGGGSGGGGSEVHLVESGGALVKPGGSLKLSCAASGFSFSKYGMSWVRQTPDKRLEWVATISSSGSRTYYPDSVKGQFTISRDNAKNTLYLQMSSLKSEDTAMYYCSISWDGAMDYWGQGTSVTVSS | binds |
| IPN002 scFv-HA expressed from TAU_ITR155 (CAG, LH, (G4S)6) (scFv, also called CAG-IPN0014-LH-G4S6) scFv: DVLMTQTPLSLPVSLGDQASISCKSSQSIVHSNGNTYLEWYLQKPGQSPKLLVYKVSNRFSGVPDRFSGSGSGTDFTLKISRVEAEDLGTYYCFQGSLVPWAFGGGTKLEIKGGGGSGGGGSGGGGSGGGGSGGGGSGGGGSEVHLVESGGALVKPGGSLKLSCAASGFSFSKYGMSWVRQTPDKRLEWVATISSSGSRTYYPDSVKGQFTISRDNAKNTLYLQMSSLKSEDTAMYYCSISWDGAMDYWGQGTSVTVSS | binds |
| IPN002 scFv-HA expressed from TAU_ITR141 (CAG, HL, (G4S)5) (scFv, also called CAG-IPN0010-HL-G4S5) scFv: EVHLVESGGALVKPGGSLKLSCAASGFSFSKYGMSWVRQTPDKRLEWVATISSSGSRTYYPDSVKGQFTISRDNAKNTLYLQMSSLKSEDTAMYYCSISWDGAMDYWGQGTSVTVSSGGGGSGGGGSGGGGSGGGGSGGGGSDVLMTQTPLSLPVSLGDQASISCKSSQSIVHSNGNTYLEWYLQKPGQSPKLLVYKVSNRFSGVPDRFSGSGSGTDFTLKISRVEAEDLGTYYCFQGSLVPWAFGGGTKLEIK | binds |
| IPN002 scFv-HA expressed from TAU_ITR153 (CAG, LH, (G4S)4) (scFv, also called CAG-IPN006-LH-G4S4) scFv: DVLMTQTPLSLPVSLGDQASISCKSSQSIVHSNGNTYLEWYLQKPGQSPKLLVYKVSNRFSGVPDRFSGSGSGTDFTLKISRVEAEDLGTYYCFQGSLVPWAFGGGTKLEIKGGGGSGGGGSGGGGSGGGGSEVHLVESGGALVKPGGSLKLSCAASGFSFSKYGMSWVRQTPDKRLEWVATISSSGSRTYYPDSVKGQFTISRDNAKNTLYLQMSSLKSEDTAMYYCSISWDGAMDYWGQGTSVTVSS | binds |
| IPN002 scFv-HA expressed from TAU_ITR150 (CAG, LH, G4S) (scFv, also called CAG-IPN004-LH-G4S; L(G4S)H) scFv: DVLMTQTPLSLPVSLGDQASISCKSSQSIVHSNGNTYLEWYLQKPGQSPKLLVYKVSNRFSGVPDRFSGSGSGTDFTLKISRVEAEDLGTYYCFQGSLVPWAFGGGTKLEIKGGGGSEVHLVESGGALVKPGGSLKLSCAASGFSFSKYGMSWVRQTPDKRLEWVATISSSGSRTYYPDSVKGQFTISRDNAKNTLYLQMSSLKSEDTAMYYCSISWDGAMDYWGQGTSVTVSS | binds |
| IPN002 scFv-HA expressed from TAU_ITR154 (CAG, LH, (G4S)5) (scFv, also called CAG-IPN007-LH-G4S5) scFv: DVLMTQTPLSLPVSLGDQASISCKSSQSIVHSNGNTYLEWYLQKPGQSPKLLVYKVSNRFSGVPDRFSGSGSGTDFTLKISRVEAEDLGTYYCFQGSLVPWAFGGGTKLEIKGGGGSGGGGSGGGGSGGGGSGGGGSEVHLVESGGALVKPGGSLKLSCAASGFSFSKYGMSWVRQTPDKRLEWVATISSSGSRTYYPDSVKGQFTISRDNAKNTLYLQMSSLKSEDTAMYYCSISWDGAMDYWGQGTSVTVSS | binds |
| IPN002 F(ab')2_hIgG3_3hinge expressed from TAU_ITR122 (CBA, hGbin, HF.T2AL) (F(ab')2) VH: EVHLVESGGALVKPGGSLKLSCAASGFSFSKYGMSWVRQTPDKRLEWVATISSSGSRTYYPDSVKGQFTISRDNAKNTLYLQMSSLKSEDTAMYYCSISWDGAMDYWGQGTSVTVSS VL: DVLMTQTPLSLPVSLGDQASISCKSSQSIVHSNGNTYLEWYLQKPGQSPKLLVYKVSNRFSGVPDRFSGSGSGTDFTLKISRVEAEDLGTYYCFQGSLVPWAFGGGTKLEIK | binds |
